# Reference: the supplement of paper PMC7877785
# ± gives the uncertainty stated by the source.
# Experiment: self-splicing fitness, log relative to wild type (ln ratio); higher = more splicing; Tetrahymena group I intron in knt gene, E. coli kanamycin selection, DiMSum; sequences stand for … in CUCUCU…GGAGGGAAAAGUUAUCAGGCAUGCACCUGGUAGCUAGUCUUUAAACCAAUAGAUUGCAUCGGUUUAAAAGGCAAGACCGUCAAAUUGCGGGAAAGGGGUCAACAGCCGUUCAGUACCAAGUCUCAGGGGAAACUUUGAGAUGGCCUUGCAAAGGGUAUGGUAAUAAGCUGACGGACAUGGUCCUAACCACGCAGCCAAGUCCUAAGUCAACAGAUCUUCUGUUGAUAUGGAUGCAGUUCACAGACUAAAUGUCGGUCGGGGAAGAUGUAUUCUUCUCAUAAGAUAUAGUCGGACCUCUCCUUAAUGGGAGCUAGCGGAUGAAGUGAUGCAACACUGGAGCCGCUGGGAACUAAUUUGUAUGCGAAAGUAUAUUGAUUAGUUUUGGAGUACUCGUGGUCG
# Outline: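 Pooled colonies went to amplicon sequencing on an Illumina HiSeq 2500 after six replicate transformations. The plates were LB agar with 100 μg/mL carbenicillin, 50 μM IPTG and 0.2% rhamnose, with or without 25 μg/mL kanamycin, incubated overnight at 37°C or 30°C. The E. coli BL21(DE3) library had all eight P1ex-region intron nucleotides randomised, the intron placed in the knt kanamycin-resistance gene on pET-22b(+). DiMSum fitness is the error-weighted combination of replicate fold changes, kanamycin against none, normalised to wild type.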
Sequence,self-splicing fitness (ln) (30 °C),self-splicing fitness (ln) (37 °C)
CUUCAGCAAUAUUACGGGGA,-3.36 ± 0.27,-1.65 ± 0.18
AUGAAGCAAUAUUACGGAUA,-0.747 ± 0.088,-0.113 ± 0.11
GGGAAGCAAUAUUACGAAUU,-0.943 ± 0.23,-0.115 ± 0.21
CUAAAGCAAUAUUACGUCUC,–,-1.93 ± 0.46
CCACAGCAAUAUUACGCCGG,-3.23 ± 0.18,-2.2 ± 0.19
GGGCAGCAAUAUUACGGGAC,-2.3 ± 0.18,-1.61 ± 0.18
GCAAAGCAAUAUUACGGGAC,-1.82 ± 0.11,-1.66 ± 0.16
AUGUAGCAAUAUUACGAUCU,-0.222 ± 0.056,0.524 ± 0.073
AGUAAGCAAUAUUACGUAUC,-3.99 ± 0.33,-0.681 ± 0.23
AUUCAGCAAUAUUACGCUCU,-0.186 ± 0.094,0.683 ± 0.12
UCUUAGCAAUAUUACGACAU,-3.836 ± 0.034,-2.41 ± 0.04
GUUCAGCAAUAUUACGCUGC,–,-1.76 ± 0.4
GCUCAGCAAUAUUACGAUGC,-1.47 ± 0.12,-0.954 ± 0.15
GCGAAGCAAUAUUACGGGCC,–,-1.37 ± 0.46
UGUAAGCAAUAUUACGAUGA,-0.986 ± 0.098,-0.393 ± 0.13
UUAUAGCAAUAUUACGUGUC,-4.44 ± 0.36,-2.71 ± 0.26
CCGAAGCAAUAUUACGGUAU,-3.13 ± 0.25,-3.64 ± 0.36
CGUGAGCAAUAUUACGCCUA,-1.86 ± 0.25,-0.88 ± 0.36
GUCCAGCAAUAUUACGCUAA,-0.5 ± 0.11,0.303 ± 0.11
UUUCAGCAAUAUUACGGGGG,-2.22 ± 0.15,-1.45 ± 0.16
CAAUAGCAAUAUUACGAUGC,-3.6 ± 0.24,-2.23 ± 0.23
CUAAAGCAAUAUUACGAAGG,-1.03 ± 0.095,-0.0689 ± 0.14
GAUUAGCAAUAUUACGCCAG,-2.17 ± 0.32,-0.806 ± 0.34
CCCGAGCAAUAUUACGGCAU,-3.28 ± 0.37,-1.85 ± 0.32
CCCUAGCAAUAUUACGUUAU,-4.33 ± 0.26,-2.76 ± 0.19

Sequence,self-splicing fitness (ln) (30 °C),self-splicing fitness (ln) (37 °C)
UUCCAGCAAUAUUACGGGGG,-3.3 ± 0.15,-1.57 ± 0.14
GGCUAGCAAUAUUACGCUAU,-1.3 ± 0.11,0.0903 ± 0.12
AUCGAGCAAUAUUACGAAUA,-3.09 ± 0.44,-2.21 ± 0.35
GGCGAGCAAUAUUACGUCGA,-2.43 ± 0.23,-0.47 ± 0.15
UACUAGCAAUAUUACGAUAC,-2.63 ± 0.2,-1.91 ± 0.25
CCGGAGCAAUAUUACGUGAU,-2.17 ± 0.19,-1.54 ± 0.3
CAGAAGCAAUAUUACGCCGG,-0.314 ± 0.13,-0.619 ± 0.17
CAAAAGCAAUAUUACGUGUA,-3.88 ± 0.16,-2.25 ± 0.1
GAGCAGCAAUAUUACGCCCG,-1.84 ± 0.25,-0.798 ± 0.27
CGAGAGCAAUAUUACGCAAA,-2.67 ± 0.27,–
GGUGAGCAAUAUUACGCUGG,-2.87 ± 0.19,-1.12 ± 0.16
UUUGAGCAAUAUUACGUUAG,–,-1.73 ± 0.35
ACAUAGCAAUAUUACGACCG,-0.782 ± 0.098,-0.154 ± 0.14
AUCGAGCAAUAUUACGUACA,-3.78 ± 0.33,-1.72 ± 0.16
CGUGAGCAAUAUUACGUUUU,-3.42 ± 0.16,-3.73 ± 0.37
CUGAAGCAAUAUUACGACGU,-2.75 ± 0.12,-1.09 ± 0.1
CCUAAGCAAUAUUACGUGAA,–,-1.96 ± 0.26
ACCAAGCAAUAUUACGUCAC,-3.68 ± 0.47,-2.89 ± 0.27
GUAGAGCAAUAUUACGCCGG,-1.41 ± 0.21,-0.336 ± 0.47
UAACAGCAAUAUUACGAUCC,–,-2.04 ± 0.42
UGUAAGCAAUAUUACGGCCA,-0.0492 ± 0.076,-0.0953 ± 0.12
AAGGAGCAAUAUUACGGCUA,-1.92 ± 0.12,-0.126 ± 0.13
GGUAAGCAAUAUUACGUGAU,-1.64 ± 0.099,-1.68 ± 0.12
AAGUAGCAAUAUUACGAUGA,-0.567 ± 0.14,-0.511 ± 0.15
GCGUAGCAAUAUUACGUAGA,-3.35 ± 0.19,-2.88 ± 0.29

Sequence,self-splicing fitness (ln) (30 °C),self-splicing fitness (ln) (37 °C)
ACUCAGCAAUAUUACGCUAC,-3.42 ± 0.27,-2.63 ± 0.23
AACGAGCAAUAUUACGGGAA,-2.18 ± 0.22,-2.74 ± 0.27
AAAUAGCAAUAUUACGUCCA,-0.829 ± 0.084,-0.327 ± 0.1
UAAUAGCAAUAUUACGCUGA,-2.81 ± 0.28,-1.23 ± 0.15
UCUUAGCAAUAUUACGCGUU,-3.83 ± 0.34,-1.75 ± 0.2
UAGAAGCAAUAUUACGCAAG,-2.33 ± 0.2,-0.64 ± 0.17
UAGGAGCAAUAUUACGGGCA,-2.72 ± 0.26,-2.63 ± 0.39
CCCGAGCAAUAUUACGAACA,-2.93 ± 0.3,-2.51 ± 0.35
AAGCAGCAAUAUUACGAGGG,-2.45 ± 0.14,-2.28 ± 0.2
UGAAAGCAAUAUUACGGAUC,-3.19 ± 0.24,-2.83 ± 0.33
AUUAAGCAAUAUUACGGAAC,-3.44 ± 0.2,-0.822 ± 0.13
CUCCAGCAAUAUUACGGUUC,-2.51 ± 0.17,-3.19 ± 0.35
CUGCAGCAAUAUUACGAGUC,-3.68 ± 0.23,-2.59 ± 0.41
AAGUAGCAAUAUUACGACCA,-1.55 ± 0.16,0.396 ± 0.21
CAUCAGCAAUAUUACGCUCG,-0.495 ± 0.064,-0.134 ± 0.079
CCACAGCAAUAUUACGCGGU,-3.46 ± 0.17,-1.94 ± 0.15
CAAGAGCAAUAUUACGUAGU,-3.51 ± 0.2,-1.78 ± 0.19
AAGCAGCAAUAUUACGACUA,-0.00923 ± 0.1,-0.791 ± 0.13
GACAAGCAAUAUUACGUCGC,-3.86 ± 0.25,-2.1 ± 0.21
UAUGAGCAAUAUUACGCGAU,–,-2.93 ± 0.37
CCAGAGCAAUAUUACGGGCA,-2.92 ± 0.28,-2.64 ± 0.38
GACAAGCAAUAUUACGGGCU,-1.63 ± 0.087,-1.39 ± 0.097
CUAAAGCAAUAUUACGCAAA,-3.47 ± 0.25,–
AUGCAGCAAUAUUACGGCCC,-0.0496 ± 0.14,0.777 ± 0.19
CUGAAGCAAUAUUACGUUGU,-4.42 ± 0.13,-2.28 ± 0.14

Sequence,self-splicing fitness (ln) (30 °C),self-splicing fitness (ln) (37 °C)
UCAAAGCAAUAUUACGAUCG,-0.659 ± 0.085,-0.141 ± 0.11
GGUGAGCAAUAUUACGAUCA,-1.24 ± 0.13,-0.356 ± 0.15
AGUUAGCAAUAUUACGACAA,-0.124 ± 0.18,-0.562 ± 0.18
UCGAAGCAAUAUUACGCUGU,-2.33 ± 0.21,-2.06 ± 0.33
AUUUAGCAAUAUUACGGACA,-1.34 ± 0.27,-0.739 ± 0.27
GUGCAGCAAUAUUACGAAUC,-1.28 ± 0.17,-0.491 ± 0.18
AGCGAGCAAUAUUACGGGGG,-2.6 ± 0.33,-2.04 ± 0.41
AACAAGCAAUAUUACGAUGG,-3.11 ± 0.094,-1.72 ± 0.079
AUUAAGCAAUAUUACGUCGU,-1.43 ± 0.094,-0.383 ± 0.12
GACCAGCAAUAUUACGACAG,-3.85 ± 0.18,-2.22 ± 0.18
ACGUAGCAAUAUUACGUCUC,-2.84 ± 0.19,-3.13 ± 0.32
AACAAGCAAUAUUACGAUUA,-0.823 ± 0.066,-0.696 ± 0.071
GGCCAGCAAUAUUACGGCGG,-0.775 ± 0.1,-1.53 ± 0.15
AAAUAGCAAUAUUACGGAUU,-0.612 ± 0.074,-1.1 ± 0.09
ACGUAGCAAUAUUACGGGAC,-4.43 ± 0.3,-1.45 ± 0.16
GGUGAGCAAUAUUACGAUAU,-2.31 ± 0.2,-1.83 ± 0.23
AACGAGCAAUAUUACGGAGG,-2.79 ± 0.19,-2.38 ± 0.27
AAGCAGCAAUAUUACGAGUA,-2.87 ± 0.19,-2.08 ± 0.14
CUCCAGCAAUAUUACGUUCC,-4.23 ± 0.46,-1.99 ± 0.35
UUUCAGCAAUAUUACGGAGU,-2.8 ± 0.28,-1.64 ± 0.38
UAAGAGCAAUAUUACGGCCU,-1.36 ± 0.47,–
UCCCAGCAAUAUUACGCGCA,-0.296 ± 0.093,-0.219 ± 0.089
GUGGAGCAAUAUUACGAGGC,–,-1.03 ± 0.5
